Assay results published in patent US20230020546A1, “APPLICATION OF PROGESTIN IN PREPARATION OF DRUG INHIBITING CYTOKINE STORM” (SHENZHEN EVERGREEN THERAPEUTICS CO., LTD., priority 2020, published 2023).

What was measured:
[1] = system: circulating cytokines in hu-SCID mice; test: Circulating cytokines in plasma of hu-SCID mice after OKT3 injection (multiplex immunoassay); type: in vivo; details: for Inhibition of OKT3-induced immune (cytokine) storm in an animal model: hu-SCID mice, overall conclusion; for IFN-γ Concentration / IL-1β Concentration / IL-2 Concentration / IL-4 Concentration / IL-5 Concentration / IL-6 Concentration / IL-10 Concentration / TNF-α Concentration: OKT3 10 μg IP alone
Description: […] A multiplex immunoassay system was then applied to the collected heparinized plasma to analyze cytokines. Cytokines measured included human IL-1β, IL-2, IL-4, IL-5, IL-6, IL-10, IL-12 (p70), IL-13, IL-17, IFN-γand TNF-α. […] The activation markers thereof were then analyzed by flow cytometry. Human peripheral blood mononuclear cells in the mouse spleen were blocked with 2.4G2 and then stained with fluorescently labeled CD69, CD25, CD45 and CD3.
After antibody injection, in order to determine if a cytokine storm was induced, we detected cytokines (human IL-1β, IL-2, IL-4, IL-5, IL-6, IL-10, IL-12 (p70), IL-13, IL17, IFN-γ and TNF-α) in the plasma of the hu-SCID mice.
On days 8 and 9 after intravenous injection of PBMCs in humanized mice (48 hours and 24 hours before antibody injection), a candidate drug PR2005 (5 mg/kg) was injected intraperitoneally to the animals. […] The results are detailed in Tables 1-4.

[2] = system: hu-SCID mice; test: Rectal temperature after antibody injection in hu-SCID mice; type: in vivo
[3] = system: hu-SCID mice; test: Clinical symptoms / clinical score after antibody injection in hu-SCID mice
Description: (§1) Each humanized mouse for the test was first intravenously injected with 2×10^7 PBMCs. After 10 days, each mouse was injected with OKT3 or control IgG (2 μg or 10 μg, IV or IP).
(§2) Clinical score measurement: as recommended by the Canadian Council for Animal Care (www.ccac.ca/en /standards/guidelines), we conducted preliminary studies to determine the most appropriate clinical symptoms and scoring criteria. […] Score: 0=normal activity; 1=normal activity, hairs upright, and tiptoe gait; 2=arched back, decreased activity, but there are still activities; 3=too few activities, but there are still activities when prompted; 4=dying. Mice with a clinical score of 4 were sacrificed.

[4] = system: hu-SCID mice; details: mouse, in vivo, ip
Description: as §1, §2

## CCCCCC(=O)O[C@]1(C(C)=O)CC[C@H]2[C@@H]3CCC4=CC(=O)CC[C@]4(C)[C@H]3CC[C@@]21C [PR2005, hydroxyprogesterone caproate, reference compound]
[1]; PR2005 5 mg/kg IP before OKT3
  Concentration of cytokines in the blood vs animals using OKT3 alone: substantially lower
[1]
  Inhibition of OKT3-induced immune (cytokine) storm in an animal model: can inhibit the OKT3-induced immune storm
[1]; listed as hydroxyprogesterone caproate
  Inhibition of OKT3-induced immune (cytokine) storm in an animal model: can inhibit the cytokine storm
[2]; PR2005 5 mg/kg IP, 48 hours and 24 hours before antibody injection
  Body temperature change after receiving OKT3: no significant changes in body temperature

## OKT3: muromonab-CD3 antibody used to induce the cytokine storm in hu-SCID mice
[3]; OKT3 2 μg IP
  Symptom observation: unaffected
[3]; OKT3 2 μg IV
  Mice needing to be euthanized: Two of four
[3]; OKT3 2 μg IV, within 1 h
  Response (symptoms): moderate to severe
[3]; OKT3 10 μg IP
  Clinical score: moderate
[3]; OKT3 10 μg IV
  Response (symptoms): severe
[3]; OKT3 10 μg IV, at 1 h
  Mice sacrificed: all mice were sacrificed
[4]
  Mice dying and sacrificed: one of 5
[1]; OKT3 2 μg IP or IV, any time point
  Induced cytokines: rarely detected
[1]; OKT3 10 μg IP
  Time of TNF-α peak: 1 h
[1]; 1 h
  IFN-γ Concentration: 7015 pg/mL
  IL-1β Concentration: 44.0 pg/mL
  IL-2 Concentration: 39.0 pg/mL
  IL-4 Concentration: 61 pg/mL
  IL-5 Concentration: 72 pg/mL
  IL-6 Concentration: 96 pg/mL
  IL-10 Concentration: 3319 pg/mL
  TNF-α Concentration: 1409 pg/mL
[1]; 2 h
  IFN-γ Concentration: 23574 pg/mL
  IL-1β Concentration: 77.5 pg/mL
  IL-2 Concentration: 75.9 pg/mL
  IL-4 Concentration: 182 pg/mL
  IL-5 Concentration: 98 pg/mL
  IL-6 Concentration: 160 pg/mL
  IL-10 Concentration: 11001 pg/mL
  TNF-α Concentration: 1127 pg/mL
[1]; 5 h
  IFN-γ Concentration: 25783 pg/mL
  IL-1β Concentration: 97.4 pg/mL
  IL-2 Concentration: 89.4 pg/mL
  IL-4 Concentration: 259 pg/mL
  IL-5 Concentration: 158 pg/mL
  IL-6 Concentration: 252 pg/mL
  IL-10 Concentration: 20052 pg/mL
  TNF-α Concentration: 655 pg/mL
[1]; OKT3 10 μg IP, concentrations gradually increased within 5 h
  Induction of cytokines (IL-1β, IL-2, IL-4, IL-5, IL-6, IL-10, IFN-γ): may induce production of multiple cytokines
[2]; OKT3 2 μg IP, 0 h
  Rectal temperature: 37.7 °C
[2]; OKT3 2 μg IP, 1 h
  Rectal temperature: 35.6 °C
[2]; OKT3 2 μg IP, 2 h
  Rectal temperature: 34.8 °C
[2]; OKT3 2 μg IP, 5 h
  Rectal temperature: 35.4 °C
[2]; OKT3 2 μg IP, similar to control human IgG
  Rectal temperature change: moderate changes
[2]; OKT3 2 μg IV, 0 h
  Rectal temperature: 37.7 °C
[2]; OKT3 2 μg IV, 1 h
  Rectal temperature: 31.7 °C
[2]; OKT3 2 μg IV, 2 h
  Rectal temperature: 33.8 °C
[2]; OKT3 2 μg IV, 5 h
  Rectal temperature: 34.9 °C
[2]; OKT3 2 μg IV, at 1 h, partial recovery after 5 h
  Transient hypothermia (rectal temperature): about 32 °C
[2]; OKT3 10 μg IP or IV, within 1 h
  Rectal temperature decrease (from 37° C.): ≤ 32 °C
[2]; OKT3 10 μg IP, 0 h
  Rectal temperature: 37.7 °C
[2]; OKT3 10 μg IP, 1 h
  Rectal temperature: 31.7 °C
[2]; OKT3 10 μg IP, 2 h
  Rectal temperature: 31.1 °C
[2]; OKT3 10 μg IP, 5 h
  Rectal temperature: 30.6 °C
[2]; OKT3 10 μg IV, 0 h
  Rectal temperature: 37.7 °C
[2]; OKT3 10 μg IV, 1 h
  Rectal temperature: 31.9 °C
